Test results as given in PMC6075034.

Target: T1, Yra1 (Saccharomyces cerevisiae, UniProt Q12159 1-226)
T1 sequence: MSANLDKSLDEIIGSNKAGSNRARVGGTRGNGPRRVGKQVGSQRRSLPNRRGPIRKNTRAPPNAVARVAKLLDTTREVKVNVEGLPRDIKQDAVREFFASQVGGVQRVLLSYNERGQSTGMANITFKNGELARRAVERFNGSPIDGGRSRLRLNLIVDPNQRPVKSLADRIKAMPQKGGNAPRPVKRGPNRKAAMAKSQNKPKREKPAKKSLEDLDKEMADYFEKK
Assay: EMSA

AGCGTGCCGTGCAACAACATTACAC (ssDNA) [DNA-25C ssDNA]: binds.

B1: 25-bp RNA-DNA hybrid (RNA-25/DNA-25C) (DNA:RNA)
RNA: GUGUAAUGUUGUUGCACGGCACGCU
DNA: AGCGTGCCGTGCAACAACATTACAC
B1: binds.

B2: 25-bp dsRNA (RNA-25 + complementary RNA; RNA-25C is printed identical to RNA-25, apparent misprint, complement built) (dsRNA)
RNA 1: GUGUAAUGUUGUUGCACGGCACGCU
RNA 2: AGCGUGCCGUGCAACAACAUUACAC
B2: binds.

GUGUAAUGUUGUUGCACGGCACGCU (ssRNA) [RNA-25 ssRNA]: binds.
